Like-named read-outs stand apart in the source and are kept apart here.
Tests used:
[1] = biological target: Fucα1,6GlcNAc-CD52 (17) (human) (UniProt P31358)
[2] = biological target: Fucα1,6GlcNAc-CD52 (17) (human) (UniProt P31358); remark: listed apart in the source

Substance	transglycosylation with sialoglycan oxazoline (12), yield of 18 [2]	further results
Endo-F3 (Endoglycosidase-F3), wild type (enzyme)		transglycosylation with sialoglycan oxazoline (12), isolated yield of 18 [1]: 55%
Endo-F3 D126Q mutant (enzyme)	> 90%	
Endo-F2 (Endoglycosidase-F2), wild type (enzyme)		transglycosylation with sialoglycan oxazoline (12), yield of 18 [1]: 25%
Endo-F3 D126A mutant (enzyme)	> 90%	
